From patent publication US20200262877A1, “ION CHANNEL-BINDING PEPTIDES AND METHODS OF USE THEREOF” (priority 2017, published 2020)

Columns and labels:
Nav1.7 = biological target: T1, Nav1.7 (Homo sapiens, UniProt Q15858); assay: cell-based; assay type: cell-based; settings: 100% = no change; for Activity of Nav1.7 with peptide, expressed as a percentage of the reference compound: peptide at 0.2 μM; for Activity of Nav1.7 with peptide (percentage of the reference compound): peptide at 20 μM
T1 construct: host or cells: HEK293 or CHO

NR2A = biological target: T2, NR2A (Homo sapiens, UniProt Q12879); assay: Ion channel panel (IonWorks Barracuda): NR2A; assay type: cell-based; settings: 100% = no change, <100% = inhibition
T2 construct: host or cells: HEK293 or CHO
Summary of the method: (§1)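 Transfected HEK293 or CHO cells were exposed for at least 5 min to peptides at 200 nM and 20 μM final, tested in duplicate, in HEPES-buffered physiological saline. Activation was taken as peptide-plus-agonist current over control current ×100, and inhibition as 1 minus that ratio ×100. Each channel's control was its own reference compound.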

NR2B = biological target: T3, NR2B (Homo sapiens, UniProt Q13224); assay: Ion channel panel (IonWorks Barracuda): NR2B; assay type: cell-based; settings: 100% = no change, <100% = inhibition
T3 construct: host or cells: HEK293 or CHO
Summary of the method: as §1

Cav2.2 = biological target: T4, Cav2.2 (Homo sapiens, UniProt Q00975); assay: cell-based; settings: 100% = no change, <100% = inhibition
T4 construct: host or cells: HEK293 or CHO
Summary of the method: as §1

Cav2.1 = biological target: T5, Cav2.1 (Homo sapiens, UniProt O00555); assay: cell-based; settings: 100% = no change, <100% = inhibition
T5 construct: host or cells: HEK293 or CHO
Summary of the method: as §1

Kv2.1 = biological target: T6, Kv2.1 (Homo sapiens, UniProt Q14721); assay: cell-based; settings: 100% = no change, <100% = inhibition
T6 construct: host or cells: HEK293 or CHO
Summary of the method: as §1

TRPA1 = biological target: T7, TRPA1 (Homo sapiens, UniProt O75762); assay: Ion channel panel (IonWorks Barracuda): TRPA1; assay type: cell-based; settings: 100% = no change, <100% = inhibition
T7 construct: host or cells: HEK293 or CHO
Summary of the method: as §1

α3β4 = biological target: T8, α3β4 (Homo sapiens, UniProt P30926+P32297); assay: Ion channel panel (IonWorks Barracuda): α3β4; assay type: cell-based; settings: 100% = no change, <100% = inhibition
T8 construct: host or cells: HEK293 or CHO
Summary of the method: as §1

α4β2 = biological target: T9, α4β2 (Homo sapiens, UniProt P17787+P43681); assay: Ion channel panel (IonWorks Barracuda): α4β2; assay type: cell-based; settings: 100% = no change, <100% = inhibition
T9 construct: host or cells: HEK293 or CHO
Summary of the method: as §1

TRPV1 = biological target: T10, TRPV1 (Homo sapiens, UniProt Q8NER1); assay: Ion channel panel (IonWorks Barracuda): TRPV1; assay type: cell-based; settings: 100% = no change, <100% = inhibition
T10 construct: host or cells: HEK293 or CHO
Summary of the method: as §1

hERG = hERG (Homo sapiens, UniProt Q12809); assay: in vitro; settings: 100% = no change, <100% = inhibition
Summary of the method: as §1

Nav1.5 = Nav1.5 (Homo sapiens, UniProt Q14524); assay: in vitro; settings: 100% = no change; for Activity of Nav1.5 with peptide, expressed as a percentage of the reference compound: peptide at 0.2 μM; for Activity of Nav1.5 with peptide (percentage of the reference compound): peptide at 20 μM
Summary of the method: as §1

Kir2.1 = biological target: T11, Kir2.1 (Homo sapiens, UniProt P63252); assay: Ion channel panel (IonWorks Barracuda): Kir2.1; assay type: cell-based; settings: 100% = no change, <100% = inhibition
T11 construct: host or cells: HEK293 or CHO
Summary of the method: as §1

Kv1.1 = biological target: T12, Kv1.1 (Homo sapiens, UniProt Q09470); assay: cell-based; assay type: cell-based; settings: 100% = no change, <100% = inhibition
T12 construct: host or cells: HEK293 or CHO
Summary of the method: as §1

Kv1.3 = biological target: T13, Kv1.3 (Homo sapiens, UniProt P22001); assay: cell-based; assay type: cell-based; settings: 100% = no change, <100% = inhibition
T13 construct: host or cells: HEK293 or CHO
Summary of the method: as §1

Kv1.2 = biological target: T14, Kv1.2 (Homo sapiens, UniProt P16389); assay: cell-based; assay type: cell-based; settings: 100% = no change, <100% = inhibition
T14 construct: host or cells: HEK293 or CHO
Summary of the method: as §1

5HT3a = biological target: T15, 5HT3a (Homo sapiens, UniProt P46098); assay: Ion channel panel (IonWorks Barracuda): 5HT3a; assay type: cell-based
T15 construct: host or cells: HEK293 or CHO
T15 sequence (P46098 whole entry, looked up): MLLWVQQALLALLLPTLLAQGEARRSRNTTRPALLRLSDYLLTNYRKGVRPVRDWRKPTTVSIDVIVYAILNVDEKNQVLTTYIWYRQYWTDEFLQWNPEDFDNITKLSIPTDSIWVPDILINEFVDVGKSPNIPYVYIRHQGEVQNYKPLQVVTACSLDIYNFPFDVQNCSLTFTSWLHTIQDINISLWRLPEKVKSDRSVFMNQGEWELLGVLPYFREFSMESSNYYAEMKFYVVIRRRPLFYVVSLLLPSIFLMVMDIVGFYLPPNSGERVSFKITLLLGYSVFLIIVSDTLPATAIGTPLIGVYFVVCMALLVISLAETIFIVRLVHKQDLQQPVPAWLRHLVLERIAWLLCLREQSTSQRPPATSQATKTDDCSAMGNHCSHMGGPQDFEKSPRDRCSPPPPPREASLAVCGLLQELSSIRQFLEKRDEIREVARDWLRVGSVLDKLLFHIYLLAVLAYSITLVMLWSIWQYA
Summary of the method: as §1

GABA = assay: Ion channel panel (IonWorks Barracuda): GABA; assay type: cell-based; settings: 100% = no change, <100% = inhibition
Summary of the method: as §1

[1] = first of two Nav1.7 columns (probably TP1)
[2] = second of two Nav1.7 columns (probably TP2)
[3] = first of two Nav1.5 columns (probably TP1)
[4] = second of two Nav1.5 columns (probably TP2)

Sequence of Nav1.5 (Q14524 whole entry): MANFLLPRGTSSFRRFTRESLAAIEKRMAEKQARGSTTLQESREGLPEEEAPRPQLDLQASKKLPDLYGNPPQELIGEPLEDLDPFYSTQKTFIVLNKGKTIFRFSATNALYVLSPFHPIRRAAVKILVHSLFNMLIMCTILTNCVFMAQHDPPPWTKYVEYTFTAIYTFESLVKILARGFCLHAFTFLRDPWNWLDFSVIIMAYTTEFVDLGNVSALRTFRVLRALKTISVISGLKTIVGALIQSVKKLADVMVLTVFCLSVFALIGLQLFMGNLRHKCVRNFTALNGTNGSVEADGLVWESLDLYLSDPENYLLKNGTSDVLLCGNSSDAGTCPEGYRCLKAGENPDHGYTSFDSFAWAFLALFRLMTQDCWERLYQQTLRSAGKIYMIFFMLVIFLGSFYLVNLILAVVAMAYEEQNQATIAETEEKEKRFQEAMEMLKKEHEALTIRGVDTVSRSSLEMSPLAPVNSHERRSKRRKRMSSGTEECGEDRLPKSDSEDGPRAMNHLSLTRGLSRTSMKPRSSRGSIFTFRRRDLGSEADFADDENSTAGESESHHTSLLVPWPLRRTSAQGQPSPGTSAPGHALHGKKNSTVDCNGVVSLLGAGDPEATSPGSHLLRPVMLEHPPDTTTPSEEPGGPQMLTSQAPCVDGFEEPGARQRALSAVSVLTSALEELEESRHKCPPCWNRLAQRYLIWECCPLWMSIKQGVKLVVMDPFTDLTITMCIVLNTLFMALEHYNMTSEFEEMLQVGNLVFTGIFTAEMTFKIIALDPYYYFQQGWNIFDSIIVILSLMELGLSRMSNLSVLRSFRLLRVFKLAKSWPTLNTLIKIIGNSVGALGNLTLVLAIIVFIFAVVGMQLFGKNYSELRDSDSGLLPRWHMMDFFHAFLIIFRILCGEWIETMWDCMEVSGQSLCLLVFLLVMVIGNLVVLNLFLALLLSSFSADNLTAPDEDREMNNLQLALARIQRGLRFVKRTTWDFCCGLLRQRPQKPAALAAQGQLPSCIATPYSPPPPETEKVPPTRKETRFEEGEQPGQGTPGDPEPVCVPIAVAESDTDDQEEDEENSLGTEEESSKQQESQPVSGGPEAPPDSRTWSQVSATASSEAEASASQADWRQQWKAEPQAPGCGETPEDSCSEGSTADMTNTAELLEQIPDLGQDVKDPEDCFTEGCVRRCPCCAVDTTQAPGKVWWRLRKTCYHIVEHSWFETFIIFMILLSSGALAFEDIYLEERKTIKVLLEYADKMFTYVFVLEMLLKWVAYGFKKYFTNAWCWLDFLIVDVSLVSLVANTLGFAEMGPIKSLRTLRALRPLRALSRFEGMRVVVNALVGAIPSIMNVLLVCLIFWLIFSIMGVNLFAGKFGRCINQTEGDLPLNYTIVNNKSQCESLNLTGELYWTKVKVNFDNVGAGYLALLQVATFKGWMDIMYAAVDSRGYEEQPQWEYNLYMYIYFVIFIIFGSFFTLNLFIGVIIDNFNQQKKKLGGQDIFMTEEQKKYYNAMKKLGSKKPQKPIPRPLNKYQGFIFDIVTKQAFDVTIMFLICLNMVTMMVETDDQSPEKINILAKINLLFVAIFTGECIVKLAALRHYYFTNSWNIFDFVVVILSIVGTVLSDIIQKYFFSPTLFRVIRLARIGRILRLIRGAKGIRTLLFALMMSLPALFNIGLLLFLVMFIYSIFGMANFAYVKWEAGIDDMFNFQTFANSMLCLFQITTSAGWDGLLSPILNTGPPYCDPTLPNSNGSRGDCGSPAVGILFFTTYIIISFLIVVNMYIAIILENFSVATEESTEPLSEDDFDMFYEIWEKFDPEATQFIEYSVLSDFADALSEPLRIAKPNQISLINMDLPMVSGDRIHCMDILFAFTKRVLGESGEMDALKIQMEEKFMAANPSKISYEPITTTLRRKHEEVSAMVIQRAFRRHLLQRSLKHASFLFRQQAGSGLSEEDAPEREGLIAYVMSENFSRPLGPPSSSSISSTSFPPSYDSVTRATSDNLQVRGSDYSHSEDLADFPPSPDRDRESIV
T1 sequence (Q15858 whole entry): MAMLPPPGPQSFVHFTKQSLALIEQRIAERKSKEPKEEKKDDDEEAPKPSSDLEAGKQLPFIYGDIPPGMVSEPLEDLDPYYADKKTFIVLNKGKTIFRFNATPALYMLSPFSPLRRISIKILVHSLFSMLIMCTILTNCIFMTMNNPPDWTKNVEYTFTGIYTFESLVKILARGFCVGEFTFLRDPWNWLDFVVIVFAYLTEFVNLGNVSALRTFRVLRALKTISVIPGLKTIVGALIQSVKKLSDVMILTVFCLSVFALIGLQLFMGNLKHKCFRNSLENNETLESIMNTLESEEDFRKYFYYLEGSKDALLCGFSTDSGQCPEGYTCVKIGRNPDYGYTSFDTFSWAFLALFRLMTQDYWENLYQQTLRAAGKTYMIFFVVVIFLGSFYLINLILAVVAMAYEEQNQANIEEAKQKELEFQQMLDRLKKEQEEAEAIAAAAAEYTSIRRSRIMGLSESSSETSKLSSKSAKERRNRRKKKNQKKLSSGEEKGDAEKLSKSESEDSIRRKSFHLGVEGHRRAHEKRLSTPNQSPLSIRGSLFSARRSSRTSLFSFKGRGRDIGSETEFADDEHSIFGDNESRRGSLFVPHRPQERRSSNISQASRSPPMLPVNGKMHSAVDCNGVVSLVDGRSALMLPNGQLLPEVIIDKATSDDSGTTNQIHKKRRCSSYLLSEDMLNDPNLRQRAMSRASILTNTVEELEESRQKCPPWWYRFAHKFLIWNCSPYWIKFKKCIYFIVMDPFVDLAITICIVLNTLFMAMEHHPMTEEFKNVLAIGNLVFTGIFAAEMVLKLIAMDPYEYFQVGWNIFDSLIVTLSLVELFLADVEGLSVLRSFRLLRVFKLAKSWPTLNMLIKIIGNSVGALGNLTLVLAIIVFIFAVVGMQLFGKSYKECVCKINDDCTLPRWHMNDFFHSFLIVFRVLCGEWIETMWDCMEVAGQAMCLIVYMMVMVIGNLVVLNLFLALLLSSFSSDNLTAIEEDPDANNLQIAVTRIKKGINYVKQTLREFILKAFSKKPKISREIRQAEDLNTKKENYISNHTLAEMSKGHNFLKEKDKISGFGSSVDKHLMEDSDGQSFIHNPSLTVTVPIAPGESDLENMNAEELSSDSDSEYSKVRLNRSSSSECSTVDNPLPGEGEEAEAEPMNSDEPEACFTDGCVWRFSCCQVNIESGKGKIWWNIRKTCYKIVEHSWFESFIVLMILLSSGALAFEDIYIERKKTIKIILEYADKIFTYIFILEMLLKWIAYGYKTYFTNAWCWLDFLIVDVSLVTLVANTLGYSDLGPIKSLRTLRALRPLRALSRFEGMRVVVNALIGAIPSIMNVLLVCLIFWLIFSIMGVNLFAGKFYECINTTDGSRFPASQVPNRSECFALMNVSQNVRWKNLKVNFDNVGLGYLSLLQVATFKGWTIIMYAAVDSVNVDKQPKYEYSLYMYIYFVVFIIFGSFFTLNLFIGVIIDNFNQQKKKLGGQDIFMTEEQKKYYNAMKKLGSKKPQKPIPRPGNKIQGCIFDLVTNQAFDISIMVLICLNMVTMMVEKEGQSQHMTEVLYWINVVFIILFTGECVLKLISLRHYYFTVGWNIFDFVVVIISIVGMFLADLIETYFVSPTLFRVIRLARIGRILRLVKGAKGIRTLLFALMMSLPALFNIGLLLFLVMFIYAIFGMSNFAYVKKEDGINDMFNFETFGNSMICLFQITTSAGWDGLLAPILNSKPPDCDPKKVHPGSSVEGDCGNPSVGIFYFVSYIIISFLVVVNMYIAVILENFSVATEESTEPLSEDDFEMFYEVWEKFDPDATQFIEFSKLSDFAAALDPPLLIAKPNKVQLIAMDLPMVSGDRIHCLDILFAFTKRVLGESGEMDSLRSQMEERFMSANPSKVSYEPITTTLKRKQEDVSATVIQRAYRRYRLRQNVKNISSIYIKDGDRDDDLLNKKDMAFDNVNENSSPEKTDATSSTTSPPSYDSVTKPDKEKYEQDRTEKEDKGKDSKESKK
T13 sequence (P22001 whole entry): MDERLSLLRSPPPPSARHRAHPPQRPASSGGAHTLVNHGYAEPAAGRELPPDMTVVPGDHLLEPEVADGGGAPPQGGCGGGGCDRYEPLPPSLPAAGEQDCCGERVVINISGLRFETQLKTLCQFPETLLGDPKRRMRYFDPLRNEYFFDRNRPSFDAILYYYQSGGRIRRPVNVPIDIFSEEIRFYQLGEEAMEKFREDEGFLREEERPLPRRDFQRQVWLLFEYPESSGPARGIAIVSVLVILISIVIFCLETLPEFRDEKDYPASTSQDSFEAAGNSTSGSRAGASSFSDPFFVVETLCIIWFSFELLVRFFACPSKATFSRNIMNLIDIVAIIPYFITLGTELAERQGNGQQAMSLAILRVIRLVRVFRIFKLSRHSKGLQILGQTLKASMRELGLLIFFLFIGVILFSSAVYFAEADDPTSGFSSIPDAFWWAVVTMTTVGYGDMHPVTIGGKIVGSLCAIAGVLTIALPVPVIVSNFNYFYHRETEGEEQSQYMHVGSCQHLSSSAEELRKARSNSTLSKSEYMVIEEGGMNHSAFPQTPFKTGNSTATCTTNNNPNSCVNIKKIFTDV
T12 sequence (Q09470 whole entry): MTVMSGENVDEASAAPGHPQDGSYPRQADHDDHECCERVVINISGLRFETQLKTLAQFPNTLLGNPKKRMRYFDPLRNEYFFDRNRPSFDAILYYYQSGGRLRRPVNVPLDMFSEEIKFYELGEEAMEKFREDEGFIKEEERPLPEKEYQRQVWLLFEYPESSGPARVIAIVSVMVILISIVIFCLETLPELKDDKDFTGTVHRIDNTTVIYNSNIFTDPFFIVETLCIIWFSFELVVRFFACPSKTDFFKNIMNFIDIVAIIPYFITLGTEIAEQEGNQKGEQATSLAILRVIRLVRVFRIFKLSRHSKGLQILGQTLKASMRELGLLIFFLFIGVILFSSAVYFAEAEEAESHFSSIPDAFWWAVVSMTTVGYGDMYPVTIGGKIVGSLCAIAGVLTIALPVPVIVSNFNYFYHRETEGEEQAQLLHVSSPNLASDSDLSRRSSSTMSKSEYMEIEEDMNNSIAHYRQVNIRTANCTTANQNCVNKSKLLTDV

Substance: 25 (GSACLAEYQKCEGSTVPCCPGLSCSAGRFRKTKLCTK) [compound 25]
- Activity of Nav1.7 with peptide, expressed as a percentage of the reference compound (Nav1.7; [1]): 66%
- Activity of Nav1.7 with peptide, expressed as a percentage of the reference compound (Nav1.7; [2]): 54%
- Activity of Nav1.7 with peptide (percentage of the reference compound) (Nav1.7; [1]): 90%
- Activity of Nav1.7 with peptide (percentage of the reference compound) (Nav1.7; [2]): 83%
- Activity of NR2A with peptide, expressed as a percentage of the reference compound (NR2A; peptide at 0.2 μM): 94%
- Activity of NR2A with peptide (percentage of the reference compound) (NR2A; peptide at 20 μM): 106%
- Activity of NR2B with peptide, expressed as a percentage of the reference compound (NR2B; peptide at 0.2 μM): 99%
- Activity of NR2B with peptide (percentage of the reference compound) (NR2B; peptide at 20 μM): 94%
- Activity of Cav2.2 with peptide, expressed as a percentage of the reference compound (Cav2.2; peptide at 0.2 μM): 111%
- Activity of Cav2.2 with peptide (percentage of the reference compound) (Cav2.2; peptide at 20 μM): 111%
- Activity of Cav2.1 with peptide, expressed as a percentage of the reference compound (Cav2.1; peptide at 0.2 μM): 89%
- Activity of Cav2.1 with peptide (percentage of the reference compound) (Cav2.1; peptide at 20 μM): 109%
- Activity of Kv2.1 with peptide, expressed as a percentage of the reference compound (Kv2.1; peptide at 0.2 μM): 88%
- Activity of Kv2.1 with peptide (percentage of the reference compound) (Kv2.1; peptide at 20 μM): 107%
- Activity of TRPA1 with peptide, expressed as a percentage of the reference compound (TRPA1; peptide at 0.2 μM): 124%
- Activity of TRPA1 with peptide (percentage of the reference compound) (TRPA1; peptide at 20 μM): 129%
- Activity of a3b4 with peptide, expressed as a percentage of the reference compound (α3β4; peptide at 0.2 μM): 105%
- Activity of a3b4 with peptide (percentage of the reference compound) (α3β4; peptide at 20 μM): 91%
- Activity of a4b2 with peptide, expressed as a percentage of the reference compound (α4β2; peptide at 0.2 μM): 73%
- Activity of a4b2 with peptide (percentage of the reference compound) (α4β2; peptide at 20 μM): 75%
- Activity of TRPV1 with peptide, expressed as a percentage of the reference compound (TRPV1; peptide at 0.2 μM): 117%
- Activity of TRPV1 with peptide (percentage of the reference compound) (TRPV1; peptide at 20 μM): 113%
- Activity of hERG with peptide, expressed as a percentage of the reference compound (hERG; peptide at 0.2 μM): 76%
- Activity of hERG with peptide (percentage of the reference compound) (hERG; peptide at 20 μM): 79%
- Activity of Nav1.5 with peptide, expressed as a percentage of the reference compound (Nav1.5; [3]): 76%
- Activity of Nav1.5 with peptide, expressed as a percentage of the reference compound (Nav1.5; [4]): 74%
- Activity of Nav1.5 with peptide (percentage of the reference compound) (Nav1.5; [3]): 88%
- Activity of Nav1.5 with peptide (percentage of the reference compound) (Nav1.5; [4]): 87%
- Activity of Kir2.1 with peptide, expressed as a percentage of the reference compound (Kir2.1; peptide at 0.2 μM): 79%
- Activity of Kir2.1 with peptide (percentage of the reference compound) (Kir2.1; peptide at 20 μM): 98%
- Activity of Kv1.1 with peptide, expressed as a percentage of the reference compound (Kv1.1; peptide at 0.2 μM): 69%
- Activity of Kv1.1 with peptide (percentage of the reference compound) (Kv1.1; peptide at 20 μM): 77%
- Activity of Kv1.3 with peptide, expressed as a percentage of the reference compound (Kv1.3; peptide at 0.2 μM): 74%
- Activity of Kv1.3 with peptide (percentage of the reference compound) (Kv1.3; peptide at 20 μM): 87%
- Activity of Kv1.2 with peptide, expressed as a percentage of the reference compound (Kv1.2; peptide at 0.2 μM): 72%
- Activity of Kv1.2 with peptide (percentage of the reference compound) (Kv1.2; peptide at 20 μM): 85%
- Activity of 5HT3a with peptide (percentage of the reference compound) (5HT3a): 94%
- Activity of 5HT3a with peptide, expressed as a percentage of the reference compound (5HT3a): 82%
- Activity of GABA with peptide, expressed as a percentage of the reference compound (GABA; peptide at 0.2 μM): 111%
- Activity of GABA with peptide (percentage of the reference compound) (GABA; peptide at 20 μM): 98%
